The target in experiment [1] is T1, PD-L1 on 786-O cells (PD-L1 overexpressing human renal cell carcinoma line) and MCF-7 cells (low PD-L1) (human, UniProt Q9NZQ7 19-290).
T1 construct: whole, on cells; also called PD-L1 molecules on tumor cells
Briefly: fluorescence microscopy (rhodamine), cells treated for 1 h.

Experiment [2] has as its target T2, PD-L1 proteins (R&D systems) (UniProt Q9NZQ7 19-239, limits assumed).
T2 construct: Commercial recombinant PD-L1; It was immobilized on a CM5 chip for SPR and used in solution for the FP assay; also called immobilized PD-L1 proteins
The experiment in a line: SPR (BIAcore X), PD-L1 immobilized on CM5 chip, four concentrations (17-42 µM by the legend). As to the method: (§1) Surface plasma resonance (SPR). SPR analysis was done using a BIAcore™ X (Pharmacia Biosensor AB, Uppsala, Sweden). In short, PD-L1 proteins (R&D systems) were immobilized onto carboxylated dextran-coated gold film surface of sensor chip (CM5 sensor chip, GE Healthcare) through EDC/NHS chemistry. 30 μL of sample solution was injected at a flow rate of […]. Sample solution was allowed to flow into both channels (channel 1 for reference, channel 2 with PD-L1), and the final SPR sensorgrams were obtained by subtracting the […].

For experiment [3], the target named is T2, PD-L1 proteins (R&D systems). The experiment in a line: fluorescence polarization, fβH2_mt titrated with PD-L1 in PBS; the concentration varied is that of PD-L1. How it is done: Fluorescence polarization (FP) assay. FP assay in PBS was used the PD-L1 binding and competition assays (λex=480 nm; λem=535 nm). Fluorescence anisotropy measurements were performed at room temperature, in a 384-well plate, and using an Infinite® M1000 Pro microplate reader (Tecan). A fβH2_mt/PD-L1 complex was used for the FP competition assay after 30 min incubation time and titrated with the competitors.

For experiment [4] the target is unchanged. The experiment in a line: SPR (BIAcore X), PD-L1 immobilized on CM5 chip, four concentrations (45-270 nM by the legend). As to the method: as §1
Experiment [5] concerns the target T1, PD-L1 on 786-O cells (PD-L1 …). Briefly: cell-based or functional assay.
In experiment [6] the target is T2, PD-L1 proteins (R&D systems). The experiment in a line: SPR, PD-L1 immobilized on CM5 chip. How it is done: as §1

No end group written: not given here.

T2 sequence (Q9NZQ7 19-239 limits assumed): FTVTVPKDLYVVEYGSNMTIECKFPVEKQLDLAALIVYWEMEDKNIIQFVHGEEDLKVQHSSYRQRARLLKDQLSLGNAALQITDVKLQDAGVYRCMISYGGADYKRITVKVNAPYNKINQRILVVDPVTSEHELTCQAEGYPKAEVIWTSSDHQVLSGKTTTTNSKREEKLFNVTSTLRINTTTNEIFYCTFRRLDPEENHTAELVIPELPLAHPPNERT
T1 sequence (Q9NZQ7 19-290): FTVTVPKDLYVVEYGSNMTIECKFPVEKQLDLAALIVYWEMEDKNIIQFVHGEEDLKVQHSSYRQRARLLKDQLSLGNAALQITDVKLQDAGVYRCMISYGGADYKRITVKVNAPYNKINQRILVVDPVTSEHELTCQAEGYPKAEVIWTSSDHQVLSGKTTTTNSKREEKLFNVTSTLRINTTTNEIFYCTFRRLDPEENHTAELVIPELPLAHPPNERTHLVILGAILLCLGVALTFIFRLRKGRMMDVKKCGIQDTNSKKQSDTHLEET

B1: pL1TZ (Trp-Zip βH2 mutant peptide) (peptide)
peptide: HKVWHWESPSGQWDTWAA-NH2
notes: Free tryptophan-zipper peptide; also called pLiTZ
As for B1, the binding result in experiment [1] is on record as “binds”.

B2: free βH2_mt peptide (peptide)
peptide: HVVWHRESPSGQTDTKAA-NH2
notes: also called H2_mt peptides; free peptides
As to B2, in experiment [2], the Kd amounted to 119000 nM and the koff was determined as 0.127 s⁻¹.

B3: fluorescein-conjugated βH2_mt (fβH2_mt) peptide (peptide)
peptide: HVVWHRESPSGQTDTKAA-NH2
modifications: also: fluorescein-conjugated, position not given here
notes: Tracer of the fluorescence polarization assay
As to B3, the “EC50 (read off the curve)” value in experiment [3] was around 300 nM.

B4: G7-βH2_mt (βH2_mt peptides conjugated to 90% acetylated G7 PAMAM dendrimer) (other)
peptide: HVVWHRESPSGQTDTKAA-NH2
modifications: not fully specified
notes: also called G7-βH2_mt conjugates; DPC
In experiment [4], B4 displayed a Kd of 2.75 nM, a koff of 0.000693 s⁻¹ and a kon of 252000 M⁻¹ s⁻¹. For the same molecule, the “IL-2 secretion from Jurkat T cells co-cultured with 786-O cells, compared with the non-treated cancer cells” value in experiment [5] worked out at 1.52 fold. Further, the “fold decrease of the dissociation rate constant (kd) compared to the free peptide” value in experiment [6] was around 180 times.

The values above are taken from patent US20210187120A1 (WISCONSIN ALUMNI RESEARCH FOUNDATION, published 2021).
